# B1: GM-CSF: murine granulocyte macrophage colony-stimulating factor added to cultures (protein, UniProt P01587 18-141, looked up)
# Granulocyte-macrophage …: APTRSPITVTRPWKHVEAIKEALNLLDDMPVTLNEEVEVVSNEFSFKKLTCVQTRLKIFEQGLRGNFTKLKGALNMTASYYQTYCPPTPETDCETQVTTYADFIDSLKTFLTDIPFECKKPGQK
# Experiments:
# [1] = tested on: Fr.II cells derived from the bone marrow of MCA26 tumor-bearing mice; assay: In vitro differentiation of bone marrow Fr.II myeloid progenitor cells, flow cytometry; format: cell-based, mouse; details: 10 days GM-CSF, then additional 24 hours
# Description: FIG. 19. Immunostaining of DCs generated from different culture conditions. BM Fr.II cells derived from naive and MCA-26 tumor bearing mice were cultured with mGM-CSF for 10 days. Non-adherent cells were harvested and cultured in the presence of mGM-CSF or mGM-CSF and anti-CD40 mAb ([…], FGK45 clone) for additional 24 hours. Non-adherent cells were stained and analyzed for the expression of various surface molecules by flow cytometry. Mean±SD is obtained from three independent experiments.
# The ability of Fr.II cells derived from the bone marrow of MCA26 tumor-bearing mice to differentiate into dendritic cells when cultured under various conditions was assessed. Fr.II cells from derived the bone marrow of tumor-free or MCA26 tumor-bearing mice were cultured for 10 days with GM-CSF. Then non-adherent cells were harvested and cultured for additional 24 hours in the presence of GM-CSF or GM-CSF and anti-CD40 monoclonal antibody. The non-adherent cells were stained and analyzed for the expression of various cell surface molecules by flow cytometry. The expression of CD40, CD80, and MHC class II was relatively low in the tumor-bearing mice. However, after culturing the Fr. II cells with GM-CSF or GM-CSF and anti-CD40 monoclonal antibody, the expression of CD40, CD 80, CD11c and MHC class II by the Fr. […]
# [2] = tested on: TILs; assay: In vitro GM-CSF stimulation of TILs from large tumor-bearing mice, surface marker staining; format: cell-based, mouse; details: GM-CSF 100 ng/ml for 5 days
# Description: The ability of in vitro stimulation with GM-CSF to promote the differentiation of tumor infiltrating lymphocytes (TILs) into dendritic cells or macrophages by was assessed. The TILs were isolated from large tumor-bearing mice, separated on a lymphocyte separation gradient, cultured with or without GM-CSF (100 ng/ml) for 5 days, and then stained with various cell surface markers. A reproducibly high percentage of Gr-1^+ cells was resent in the TIL population (65.5%), while the percentage of dendritic cells in the TIL population was very low (0.31%); some macrophages (14.9%) were also present in the TIL population.
molecule,measurement,setting,value
B1,"expression of CD40, CD 80, CD11c and MHC class II by the Fr. II cells",[1],significantly increased
same,Gr-1^+ cells in the TIL population,[2],42.7%
same,dendritic cells in the TIL population,[2],13.9%
same,macrophages in the TIL population,[2],24.3%

# Reference: patent US20030035790A1, “Combination therapy for the prevention or treatment of cancer, inflammatory disorders or infectious diseases in a subject” (priority 1999, published 2003)
